# Assay results taken from the DeepSol protein solubility set.
# Experiment: soluble on expression in E. coli; label from the status in PepcDB or PDB records
row,Sequence,soluble on expression in E. coli
1,MMNEKNPPLVSILIPTYNRPHYFKIALESALAQTYSNIEIIIGDDSTNDETATLIREQYLPNYKNITYIRNTPTLGQFHNDLMLIEKSNGEYINFLMDDDVFYKHKIQKMMTYFEQDPNKNLALVTSYRVRIDDHGNLIGDSHPTQRLYSEDTPLNGIFLGNWMLKGGHNIIGEPTTTLFRKELLTEPFGTLKERQYSCSVDMASWISLLSKGNAIYISEPLSQFRYHAGQQIHNKLLQGCEDFTHLVITAKEYGFLQNTTDYRAALLSAYQWCKSSLKYYLHQLDIFPDAHVRLSHCLDIIIKELNNLEHHHHHH,soluble
2,MQRKLATWAATDPSLRIQRLLRLITQPEWLAEAARITLSSKGAHTPGVDGVNKTMLQARLAVELQILRDELLSGHYQPLPARRVYIPKSNGKLRPLGIPALRDRIVQRAMLMAMEPIWESDFHTLSYGFRPERSVHHAIRTVKLQLTDCGETRGRWVIEGDLSSYFDTVHHRLLMKAVRRRISDARFMTLLWKTIKAGHIDVGLFRAASEGVPQGGVISPLLSNIMLNEFDQYLHERYLSGKARKDRWYWNNSIQRGRSTAVRENWQWKPAVAYCRYADDFVLIVKGTKAQVEAIREECRGVLEGSLKLRLNMDKTKIPHVNDGFIFLGHRLIRKRSRYGEMRVVSTIPQEKARNFAASLTALLWKVRISGEILLGLEHHHHHH,not soluble
3,MGSDKIHHHHHHMTGQNPAPDEIVIDTGNPHPARMYDWFLGGKDNYPVDEEMGRQLLALDPRVPVMAKVNRAFMHRATRWLAMNGVRQFLDIGTGIPTEPNLHQIAQQVAPESRVVYCDNDPIVLAHAAALLRSTPEGVTEYVQADVRDPDTIVEQAGKVLDFSKPVALSLVALLHFVSDEDGAYELVDRLLAEVPSGSYLMLSHATADFTPKKSEEAGELYKARSLTLALRSRDEVARFFRDLELVEPGVEVPDKWRPELGEPVPGQDDEPIPGYAAVGRKP,not soluble
4,MGSDKIHHHHHHMATENPPIYMVGGSKGGVGKSFVTLALVDYLRRMEVNVVLVETDTSNPDVMKAVHDEIECGSCDLDDVSGWIDFVNFCDLHPDATVVVNTAARSQAGVAQYGGTLASTLDELARRLVVLWVINRQRDSLELLLRFGATFPNAITHVVRNGYFGSPDKFTLYRDSQLRNAVEAQGQSLDFPDLADRVADELRSQRLSVSKAAEMMHMGERAELLRWRAVCGTMFARVTPHA,not soluble
5,MEEKKDFYDTDELRDFMALVEKTNDIKKIALFRILAFTGIRKGELLALEWKDYRKSTLDINKAISHSPVGYEILPPKANSNRLLSLDEKTCKILDELHQTYPESTRIFESENGGMLSPSKPRKWLLEITKEKEIEPIRIHAFRHTHASLLFESGMSLKQVQYRLGHADLKTTMNIYTHITKLEHHHHHH,soluble
6,SMEDPDQLYTTLKNLLAQIKSHPSAWPFMEPVKKSEAPDYYEVIRFPIDLKTMTERLRSRYYVTRKLFVADLQRVIANCREYNPPDSEYCRCASALEKFFYFKLKEGGLIDK,soluble
7,MVAESNSAVAPTANVATSPAHEHFVRVNGGHFELQGKPYVITGVNMWYAAYLGAPNEVGDRDRLAKELDNLKAIGVNNLRVLAVSEKSEINSAVKPAVTNGFGNYDETLLQGLDYLLVELAKRDMTVVLYFNNFWQWSGGMTQYMAWIEGEPVQDPNVTNEWEAFMAKSASFYRSEKAQQEYRKTLEKIITRVNSINGKAYVDDATIMSWQLANEPRPGNSQTTAEEKQIYIDWVHAAAAYIKTLDAHHLVSSGSEGEMGSVNDMQVFIDAHATPDIDYLTYHMWIRNWSWFDKTKPAETWPSAWEKAQNYMRAHIDVAKQLNKPLVLEEFGLDRDMGSYAMDSTTEYRDNYFRGVFELMLASLEQGEPSAGYNIWAWNGYGRTTRANYWWQEGDDFMGDPPQEEQGMYGVFDTDTSTIAIMKEFNARFQPKLEHHHHHH,soluble
8,MSSTAVVPSAPGPGPGPSGGPGGGTEVIQVTNVSPSASSEQMRTLFGFLGKIDELRLFPPDDSPLPVSSRVCFVKFHDPDSAVVAQHLTNTVFVDRALIVVPYAEGVIPDETKALSLLAPANAVAGLLPGGGLLPTPNPLTQIGAVPLAALGAPALDPALAALGLPGTNLNSQSLAADQLLKLMSTVDPKLNHVAAGLVSPSLKSDTSSKEIEEAMKRVREAQSLISAAIEPDKKEEKRRHSRSRSRSRRRRTPSSSRHRRSRSRSRRRSHSKSRSRRRSKSPRRRRSHSRERGRRSRSTSKARD,soluble
9,MKIVAVTACPTGIAHTYMAADALTKAAPKYNVQIKVETQGAMGIENPLTPYDLSHADKVLIVSDIDIEQPARFEGMKVVKLSIEEVLLNVDKVFLVHCR,not soluble
10,MTTPRWLTQDEQSLWRLFLAMERKVTRGIDEELQSSQGLTTPEFSVLVSLSERPGHEIRLRDLCESLQWDRSRTSHQITRMQRRGLVTKTKCSDDARGVFVELTPEGEKRLREAAPGHVDVVRKLIFDVMTEEEAAVLRGYFQKVIDVQCGASTGNPLDD,not soluble
11,MEGLQRSTISFRRQGSSGIVFDDRLIAELNKSGNNEQKDESQRDEQPKPMSESSEQVKPIDEKDKLRPIKTGGGAPGGIERSRSNGGGAQRHHRTTGRVSPAVDPPSPRISSCGCCSAFGKNPPGKKVNPRKRPPKRRSR,not soluble
12,MRTMIYKILTGCYIVAALVLVAACNDGLDIQTKYPFTVETMPVPKELKVNETAEIRCELKREGRWEDTRYTIRWFLFDGEGTLKLDDGTVLLPNDRYPLEKETFRLYYTPLSDEQSGFTVWVEDSDGQAVELEFDFNADNDKEDGYGTELEHHHHHH,soluble
13,MSLSRTIEDRAAEFAIQPSYHALGGEFVRAPVETLREMLGAFGISLDGPPPDRAPPEMRAPDGYRCFLPEGEMRRWGIAAQLYQLRSERNWGIGDFADLCDLARIGGAAGADFIGLNPLHALFLANPAHTSPFSPSNRRFLNPLYIAVDRVPGYRPEFAPEGLGQLRAPDLVDYPAVAAAKLGALRRLWREGPDDAMGFMRFCAEGGELLRRHALFEAISGQMVADGYGAGWLGWPVEFHDAEGQAVIDFADARGDEVGFHLWLQWIADRQLEEARDACRAAGMKIGLYLDFAVGEVPDGSSTWSDPSLAVPGLRIGASPDWFNAQGQDWGLAPLSPVKLADLRAAPFGALMQDATRRAGALRIDHAMGVWQLFLIPDGMGAPQGTYVRYPIEDMLRALAEASCRNRTIVIGEDLGNVPDGFRELMARMNILSYRILLFERHDHGYIAPEHYPREALVCLSTHDLPTFRGWWRGDDVAIRRDFRLISDEAARQQGDFRWTERRQLLEDLARAGLMAWDEIDRIGPDDPPEALVVAVHRHLARAPSRLFAVRIEDMAGEVAPVNVPSTVDEHPNWRRRLGVPLEALGETALFRGIAGALEAEREGHHHHHH,soluble
14,MSITQYLTEEHRKCDQIYAEVEKAVNEGNWEKAKELFKEFKEKTLLHFKKEEEVLFPEFEQRTGIVMGPTQVMRMEHDQARELLERMEKALEEKNKDEFLSLGESLMILIQQHNMKEEQILYPMSDQNLNAEKMVSKMAELGEV,not soluble
15,MFKSVAKCDKVEKMLLGTFNLTLDNKNRISLPAKLRSFFDSSIVINRGFENCLEIRKPADFESYFQTFNNFPNTQKDTRTLKRLIFANANLVELDSANRILIPNNLISDAKLDKEIVLIGQFDHLEVWDKVQYEQYLASSESLETVAERMKDAK,soluble
16,MGSDKIHHHHHHMTAEDTYKTIVEPSEGIYTEKRSKFIAIALPVRTLDEIKAHLETYQKKYYDARHVCYAYMLGAARKDFRANDNGEPSGTAGKPILGQINSNELTDILIIVVRYFGGIKLGTSGLIVAYKAAAAEAISAATIIEKTVDEEVTVMFEYPFMNDIMRIVKEEEPEILSQSYDMDCSMTLCIRRSMMPKLRARLEKVETARILDEE,not soluble
17,MGSDKIHHHHHHMLKLDKIQANKIVEKLMADIPYNINIMDERGKIIASGDSARIGERHRGAERAINERKNIEIYKDTSLEKKGTNEPIILNNHILGVVGISGEPDEVRKFTKLVRSIVLLLTEELNTQQEREKKKKQKNQFIQHLMHVDSSYSEALKLEALELYNLQLDDQNHCVLTKDKRLLSSYYPGHEIFEWENCYLVITSEPPQITKPVTEYLVISSEKATIQQMVQEAQNTYLLLSFLQLEKAKFYQAEDFFIQGIFNFPFHIELDFFETIQTIYDEYYETVIFFANHNLNINETSQVLHIHRNTLNYRLKRIHELTGMDPKVWQDFWKLFYYFAYCFKERFEK,not soluble
18,MKGLRLPESMREELAKPHGKLYRGKGEKLLLEVEEISEAKPFCTVGDLVTASAIKVGLTPDLAVADGKTLREENVEFEQEAFDEVIETTNPPAHISCELISALLKALKLCEDGKKVLVFVDGEEDLAVVPLVKLLPLGALILYGQPGEGVVALKVDEEKKVLILNLLNKMEIIGECDELKYLLGGD,not soluble
19,MGSDKIHHHHHHMKDTNRTHSADAATVEEALAADNHQGIVDSEGATALAMQNTLLTPRFYTTDFDEMDSLDVSSVREDWDTLIAQMKSDPNKGHFKKNEDWDSVDWDGMEPALKREFIDFLVSSCTAEFSGCVLYKEMKRRGNNEDIVTLFQLMARDEARHAGFINDALREAGIAVNLGFLTQKKKYTYFRPKFIYYATYLSEKIGYARYITIFRHLEANPEHRFHPIFKWFREWCNDEFSHGEAFALIMKSDPKFTQKWQNKLWIKFFLTAVYSTMYVRDHQRPVFHAALGVDPDWYAHEVFTKTSEITKQIFPITLDIENPRWQRGLEAMQRANVDLADAKANGKLFKRIGASIRAGAAFVNLFTIPANKHDAPASVRLEPAY,not soluble
20,GTGTRFGTDLAKEAKKVHQTTRTVPAKRGTIYDRNGVPIAEDATSYNVYAVIDENYKSATGKILYVEKTQFNKVAEVFHKYLDMEESYVREQLSQPNLKQVSFGAKGNGITYANMMSIKKELEAAEVKGIDFTTSPNRSYPNGQFASSFIGLAQLHENEDGSKSLLGTSGMESSLNSILAGTDGIITYEKDRLGNIVPGTEQVSQRTMDGKDVYTTISSPLQSFMETQMDAFQEKVKGKYMTATLVSAKTGEILATTQRPTFDADTKEGITEDFVWRDILYQSNYEPGSTMKVMMLAAAIDNNTFPGGEVFNSSELKIADATIRDWDVNEGLTGGRMMTFSQGFAHSSNVGMTLLEQKMGDATWLDYLNRFKFGVPTRFGLTDEYAGQLPADNIVNIAQSSFGQGISVTQTQMIRAFTAIANDGVMLEPKFISAIYDPNDQTARKSQKEIVGNPVSKDAASLTRTNMVLVGTDPVYGTMYNHSTGKPTVTVPGQNVALKSGTAQIADEKNGGYLVGLTDYIFSAVSMSPAENPDFILYVTVQQPEHYSGIQLGEFANPILERASAMKDSLNLQTTAKALEQVSQQSPYPMPSVKDISPGDLAEELRRNLVQPIVVGTGTKIKNSSAEEGKNLAPNQQVLILSDKAEEVPDMYGWTKETAETLAKWLNIELEFQGSGSTVQKQDVRANTAIKDIKKITLTLGD,soluble
21,MDFKASGTKFKKTGKKVVPAKAFEEIVQTNRDVLKKSAFLSDLLENLQPHLNNIKKIRCVAIGNFKEDFPATYQFALLLEITDYIKSEDERDVVVSLYDPIFTKEEIQYLKSLGSKWLIEEEFSENDAIDYESVLYFLPHAPLDLTENILSSQRPHLWLANNMISHTDRYTKAKLCENYPNLSKLVHYLQTNAPPEVKKAHDVDGFATFIPKRKRKNRNNSSKLKVTPSDIDYDSIAPKFKSCQILTDFDEGKYLKEKPWINSFSDLTLHAIEY,not soluble
